Measurements reported in PMC4705661, “Tetramerization and interdomain flexibility of the replication initiation controller YabA enables simultaneous binding to multiple partners” (Nucleic Acids Research, 2015).

Tests used:
[1] = target: the molecule itself; assay: SEC-MALS; YabA1-58 and YabA70-119 loaded at 5 mg.ml^-1 (100 μl) on a Superdex 75 column; 50 mM Tris pH 8.0, 150 mM NaCl
[2] = target: the molecule itself; assay: crystal structure; form I crystals, space group P3(2)21, 2.7 Å; 20% PEG 3350, 100 mM Bis-Tris propane pH 6.5, 200 mM potassium thiocyanate
[3] = target: the molecule itself; assay: SEC-MALS; YabA loaded at 2.5 mg.ml^-1 (100 μl) on Superdex 200 HR 10/30; 50 mM Tris pH 8.0, 150 mM NaCl

B1: YabA^1–58 (domain or fragment, B. subtilis, UniProt P37542 1-58, looked up)
chain: MDKKELFDTVINLEEQIGSLYRQLGDLKQHIGEMIEENHHLQLENKHLRKRLDDTTQQ
notes: YabA, B. subtilis strain 168, residues 1-58; tag removed by HRV 3C protease; also called NTD fragment; N-terminal fragment YabA1-58; not shown: His-tag, N-terminal, cleaved
Q: How did the “stoichiometry N” value [1] turn out when B1 was run?
A: 4

B2: YabA^1–62 (crystallized N-terminal domain fragment) (domain or fragment, B. subtilis, UniProt P37542 1-62, looked up)
chain: MDKKELFDTVINLEEQIGSLYRQLGDLKQHIGEMIEENHHLQLENKHLRKRLDDTTQQIEKF
notes: YabA, B. subtilis strain 168; form I crystals (2.7 Å) grew from the purified YabA/DnaN complex, form II crystals from YabA alone; two chains per asymmetric unit, tetramer by crystal symmetry; also called YabA NTD; YabA-NTD; source: E. coli BL21 (DE3), purified; fragment left by proteolysis during crystallization
Q: With B2 as the protein, how does the “stoichiometry N” value [2] read?
A: 4

B3: YabA (full length, purified recombinant) (natural protein)
chain: not shown
notes: expressed from pET151/D-TOPO; also called recombinant YabA; full length YabA; source: E. coli BL21 (DE3), purified (HisTrap, TEV cleavage, Superdex 200)
Q: With B3 as the protein, how does the “stoichiometry N” value [3] read?
A: 4
